In paper PMC6219552, “β-Glucuronidases of opportunistic bacteria are the major contributors to xenobiotic-induced toxicity in the gut” (Scientific Reports, 2018):

B1: Bacteroides fragilis β-D-glucuronidase (enzyme)
chain: RQDILLNNNWNFRFSHQVQGDTRRVDLPHTWNAQDALAGKIDYKRGIGNYEKALYIRPEWKGKRLFLRFDGVNSIADVFINRKHIGEHRGGYGAFIFEITDLVKYGEKNSVLVRANNGEQLDIMPLVGDFNFYGGIYRDVHLLITDETCISPLDYASPGVYLVQEVVSPQEAKVCAKVNLSNRAADGTAELQVLVTDGTKVICKESRNVSLKQGADILEQLPLLIQKPRLWNGCEDPFMYQVSISLHKDGKQIDSVTQPLGLRYYHTDPDKGFFLNGKHLPLHGVCRHQDRAEVGNALRPQHHEEDVALMREMGVNAIRLAHYPQATYMYDLMDKHGIVTWAEIPFVGPGGYADKGFVDQASFRENGKQQLIELIRQHYNHPSICFWGLFNELKEVGDNPVEYVKELNALAKQEDPTRPTTSASNQDGNLNFITENIAWNRYDGWYGSTPKTLATFLDRTHKKHPELRIGISEYGAGASIYHQQDSLKQPSASGWWHPENWQTYYHMENWKIIAERPFVWGTFVWNMFDFGAAHRTEGDRPGINDKGLVTFDRKVRKDAFYFYKANWNKQEPMIYLAEKRCRLRYQPEQTFMAFTTAPEAELFVNGVSCGKQKADTYSTVVWKNVKLTSGENIIRVTTPGKKPLTDEVTVEYKEDR
notes: β-D-glucuronidase (GUS) of Bacteroides fragilis, codon-optimized gene bought from GenScript, in pET15b; apo structure PDB 3CMG named as search model; Crystallised and soaked with UIFG; Its PDB code is one of 5Z18, 5Z19, 5Z1A, 5Z1B; also called BfGUS
B2: Ruminococcus gnavus β-D-glucuronidase (enzyme)
chain: MLEYSELYPIQNEYRMMQSLDGMWKFQFDPEEIGKKSGWENGLPAPVSMPVPSSFADFFTDHKERDYCGDFWYETEFYLPAEWRNKKIWLRFGSITHRGTVYCNGMEITSHEGGFLPVLADISTVAKPGQVNQVVVKINNELNETSLPCGATKILNNGRKLAKPYFDFFNYSGLQRSVWVIALPEESVKDYSVDYELCGTDALVKYEVVTTGEHPVIVRLLDAEGELVAETEGKEGILQVANARLWEVRNAYLYQIVILITDGNGVLDEYREKIGIRTVRIEGTKILLNDRPVYLKGFGKHEDFPILGRGFHWGIVKRDFECLKWTNANCFRTSHYPYAEEWYQFADEEGFLIIDEVPAVGMMRSTRNFVAAGSGNYTYFFEALTVPELLKSHIADTEEMITRDKNHPSVIAWSLFNEPETITDYAYEYFKEVFAAAETYDFQSRPMTGAFEKNSKPELCKCYPLCDFICLNRYYGWYISGGPEIEEAEELFRDEMDRWKAKELNVPFVFTEFGTDTMAGLHKLPSIMWSEEYQKEYLEMNFRVFDSYEFVQGELAWNFADFQTTEGIMRVDGNHKGVFTRDRQPKAAAVVFKDRWEKKNELF

What was measured:
[1] = target: Bifidobacterium dentium β-D-glucuronidase, catalytically inactive mutant E479A (Bifidobacterium dentium); test: crystal structure; crystals of the purified GUS alone, soaked with UIFG (RgGUS, BfGUS) or with compound 10 (BifdGUS E479A); oligomer as seen in the crystal structures
[2] = target: the molecule itself; test: as above

Molecule | stoichiometry N [1] | stoichiometry N [2]
Bifidobacterium dentium β-D-glucuronidase, catalytically inactive mutant E479A (enzyme) | 4 | –
B1 | – | 4
B2 | – | 4
